Measured values published in article PMC9507969, “Visualizing maturation factor extraction from the nascent ribosome by the AAA-ATPase Drg1” (Nature Structural & Molecular Biology, 2022).

B1: Drg1 (diazaborine resistance gene 1), wild type, purified (enzyme, S. cerevisiae)
chain: MAPKSSSSGSKKKSSASSNSADAKASKFKLPAEFITRPHPSKDHGKETCTAYIHPNVLSSLEINPGSFCTVGKIGENGILVIARAGDEEVHPVNVITLSTTIRSVGNLILGDRLELKKAQVQPPYATKVTVGSLQGYNILECMEEKVIQKLLDDSGVIMPGMIFQNLKTKAGDESIDVVITDASDDSLPDVSQLDLNMDDMYGGLDNLFYLSPPFIFRKGSTHITFSKETQANRKYNLPEPLSYAAVGGLDKEIESLKSAIEIPLHQPTLFSSFGVSPPRGILLHGPPGTGKTMLLRVVANTSNAHVLTINGPSIVSKYLGETEAALRDIFNEARKYQPSIIFIDEIDSIAPNRANDDSGEVESRVVATLLTLMDGMGAAGKVVVIAATNRPNSVDPALRRPGRFDQEVEIGIPDVDARFDILTKQFSRMSSDRHVLDSEAIKYIASKTHGYVGADLTALCRESVMKTIQRGLGTDANIDKFSLKVTLKDVESAMVDIRPSAMREIFLEMPKVYWSDIGGQEELKTKMKEMIQLPLEASETFARLGISAPKGVLLYGPPGCSKTLTAKALATESGINFLAVKGPEIFNKYVGESERAIREIFRKARSAAPSIIFFDEIDALSPDRDGSSTSAANHVLTSLLNEIDGVEELKGVVIVAATNRPDEIDAALLRPGRLDRHIYVGPPDVNARLEILKKCTKKFNTEESGVDLHELADRTEGYSGAEVVLLCQEAGLAAIMEDLDVAKVELRHFEKAFKGIARGITPEMLSYYEEFALRSGSSS
notes: Drg1 (AFG2), hexameric type-II AAA-ATPase of S. cerevisiae, wild type; Hexamer in the cryo-EM maps; also called DRG1 (AFG2); AAA-ATPase Drg1; source: overexpressed in yeast as GST fusion (CuSO4-induced), purified on GSH-agarose, eluted by Prescission protease cleavage
B5: Nog1 on the pre-60S particle (natural protein, UniProt Q02892 1-647, looked up)
chain: MQLSWKDIPTVAPANDLLDIVLNRTQRKTPTVIRPGFKITRIRAFYMRKVKYTGEGFVEKFEDILKGFPNINDVHPFHRDLMDTLYEKNHYKISLAAISRAKSLVEQVARDYVRLLKFGQSLFQCKQLKRAALGRMATIVKKLRDPLAYLEQVRQHIGRLPSIDPNTRTLLICGYPNVGKSSFLRCITKSDVDVQPYAFTTKSLYVGHFDYKYLRFQAIDTPGILDRPTEEMNNIEMQSIYAIAHLRSCVLYFMDLSEQCGFTIEAQVKLFHSIKPLFANKSVMVVINKTDIIRPEDLDEERAQLLESVKEVPGVEIMTSSCQLEENVMEVRNKACEKLLASRIENKLKSQSRINNVLNKIHVAQPQARDDVKRTPFIPESVKNLKKYDPEDPNRRKLARDIEAENGGAGVFNVNLKDKYLLEDDEWKNDIMPEILDGKNVYDFLDPEIAAKLQALEEEEEKLENEGFYNSDDEEEIYDGFEASEVDDIKEKAAWIRNRQKTMIAEARNRKSLKNKAIMPRSKLTKSFGKMEEHMSTLGHDMSALQDKQNRAARKNRYVERGSDVVFGDQDALTASTENGVKLRQTDRLLDGVADGSMRSKADRMAKMERRERNRHAKQGESDRHNAVSLSKHLFSGKRGVGKTDFR
notes: Nog1 of S. cerevisiae; source: endogenous, on pre-60S particles purified from S. cerevisiae via Bud20-TAP (cryo-EM, blots) or Arx1-TAP (cross-linking)
B6: Rlp24 (ribosomal-like protein 24) on the pre-60S particle (natural protein)
chain: not shown
notes: Ribosomal-like protein 24 (Rlp24) of S. cerevisiae

How the values were obtained:
[1] = molecular target: export-competent pre-60S particle purified via Bud20-TAP (S. cerevisiae (endogenous in the yeast …, UniProt Q08004 1-166; Q07915 1-199; Q03862 1-593; Q02892 1-647; P38861 1-518; P33201 …, Partial protein list of a heterogeneous ~2.1 MDa endogenous particle: members named in the text plus L2-A, L3 and L4-A from the PDB 7Z34 candidate entities. Tif6 is not named in the text and is inferr); assay: SPR; Biacore X100; pre-60S particles captured through the Protein A moiety of Bud20-TAP on IgG immobilized on a CM3 chip; 25-150 nM Drg1 injected with 1 mM ATPγS; sigmoidal dose-response with variable slope on normalized RU; settings: both partners purified
[2] = molecular target: the molecule itself; assay: cryo-EM structure; purified Drg1 (1.75 mg/ml, 12 µM) mixed 1:1 with 200 nM export-competent Bud20-TAP pre-60S particles, 2 mM ATPγS, 10 minutes; particle-bound Drg1 and free Drg1 hexamers picked from the same dataset
[3] = molecular target: B1; assay: SPR; Biacore X100; GST-Rlp24C amine-coupled on a CM5 chip, GST in the reference cell; 75-10,000 nM Drg1 injected with 1 mM ATPγS; 20 mM HEPES, 10 mM KCl, 2.5 mM MgCl2, 100 mM NaCl, 0.05% Tween-20, 1 mM DTT, pH 7.5; one-site binding hyperbola on normalized RU; settings: both partners purified
[4] = molecular target: B1; assay: pull-down; GST-tagged bait on GSH-agarose beads; 80 µg Drg1 in 120 µl binding buffer (20 mM HEPES-KOH, 150 mM potassium acetate, 5 mM magnesium acetate, 0.1% Tween-20, 1 mM DTT, pH 6.8); 1 mM ATP or ATPγS or no nucleotide; 60 minutes, room temperature; settings: both partners purified
[5] = molecular target: B1; assay: cryo-EM structure; purified Drg1 (1.75 mg/ml, 12 µM) mixed 1:1 with 200 nM export-competent Bud20-TAP pre-60S particles, 2 mM ATPγS, 10 minutes; particle-bound Drg1 and free Drg1 hexamers picked from the same dataset; settings: both partners purified
[6] = molecular target: B1; assay: cross-linking; pre-60S particles purified via Arx1-TAP from drg1-18 (TEV eluate) incubated with 150 µg purified Drg1 and 1 mM ATPγS, cross-linked with 1.5 mM DSS or BS3 (isotopically labeled), 30 minutes, 30 °C; LC-MS/MS, xQuest/xProphet; settings: both partners purified
[7] = molecular target: B5; assay: cryo-EM structure; purified Drg1 (1.75 mg/ml, 12 µM) mixed 1:1 with 200 nM export-competent Bud20-TAP pre-60S particles, 2 mM ATPγS, 10 minutes; particle-bound Drg1 and free Drg1 hexamers picked from the same dataset; settings: both partners purified
[8] = molecular target: B6; assay: co-IP; affinity purification of pre-60S particles via Bud20-TAP from S. cerevisiae crm1^T539C (untreated, LmB and/or diazaborine; ARX1 or Δarx1 background), SDS-PAGE and western blotting; settings: partners not purified

B1
EC50 [1]: 46 nM | stoichiometry N [2]: 6

B2: GST-Rlp24C (Rlp24 C domain, aa 146-199) (domain or fragment, S. cerevisiae, UniProt Q07915 146-199, looked up)
chain: AKEQERAESVSEQEESEEEEEDMEIDSDEEEEEQLEKQKILLKNRRRNTKKIAF
notes: Ribosomal-like protein 24 (Rlp24) of S. cerevisiae, C domain, aa 146-199; In the ATPase assays a HIS6-tagged Rlp24C made in E. coli was used instead of the GST fusion; source: purified
Kd [3]: 2700 nM

B3: GST-Rlp24C RKK>E (R191E, K195E, K196E) (domain or fragment, S. cerevisiae, UniProt Q07915 146-199, looked up)
chain: AKEQERAESVSEQEESEEEEEDMEIDSDEEEEEQLEKQKILLKNRERNTEEIAF
notes: Rlp24 of S. cerevisiae, C domain aa 146-199 with three exchanges in the tail; In the ATPase assay the HIS6-tagged form of this variant was used
binding result [4]: binds

B4: Arx1 on the pre-60S particle (natural protein, UniProt Q03862 1-593, looked up)
chain: MALAISHEDTQILLKDKNILQESVLNKYRTAGQIAQTALKYVTSLINDSYHSKTTQRQLTVPELCLLTDSFILTRLEQYYKNKVNERGIAIPTTIDIDQISGGWCPEIDDTQNLLNWNKGKDSTFASSVTGTLRPGDLVKITLGVHIDGYTSEVSHTMVIYPVDETKPILQPTGPLLGGKADAVAAAHIAMETVVALLACALTPEKLPASLGGTSSGITGQLIRTIVDTIARSYNCGVVPGSRVRRIRRFLAGQNEGIVAEREYKGVVWTESHQEADLLSNTDAKDLTVVDRGQSTPFTNVSAIPSDDFVVQSGEVYLIDLKMASLEHCTKKGLVTLETVDSYTGKSHKAGELIARPGAYVRDFAQTHILKLKTSRQLLTKIDKQGVYPFKLSHLSSNFPFVHENEEELQSLKKDLKSFRLGMSEISNNYLCVESPIQIARWVPWDHILKATNPNGNLSYDATSTLTLPGHELPLPKLGVSAIKLKSLMNSTKESISLPVARECNTIVLCDSSVSTTDRPELLRLTGGSKTCQPSWIHSQHELNPQDSIVQGIFQLATLAKDKRFGLLLKETQPMKQKSVETSNGGVEETMKM
notes: Arx1 of S. cerevisiae, maturation factor at the exit of the polypeptide exit tunnel; source: endogenous, on pre-60S particles purified via Bud20-TAP from S. cerevisiae crm1^T539C after LmB treatment
binding result [5]: binds

B5
binding result [6]: binds

B6
binding result [7]: binds

B7: Bud20-TAP (natural protein, S. cerevisiae)
chain: MGRYSVKRYKTKRRTRDLDLIYNDLSTKESVQKLLNQPLDETKPGLGQHYCIHCAKYMETAIALKTHLKGKVHKRRVKELRGVPYTQEVSDAAAGYNLNKFLNRVQEITQSVGPEKESNEALLKEHLDSTLANVKTTEPTLPWAAADAEANTAAVTEAESTASAST
notes: Bud20 of S. cerevisiae; For cryo-EM the Protein A part of the tag was removed by TEV cleavage; source: expressed in S. cerevisiae crm1^T539C; bait of the pre-60S particle purification
binding result [8]: binds
